In paper PMC2199204:

Target: DGKζ with a FLAG epitope tag at its COOH terminus (DGKζ-FLAG) (human)
Assay: co-IP

Sequence of DGKζ with a FLAG epitope tag at its COOH terminus (DGKζ-FLAG) (human) (Q13574 whole entry): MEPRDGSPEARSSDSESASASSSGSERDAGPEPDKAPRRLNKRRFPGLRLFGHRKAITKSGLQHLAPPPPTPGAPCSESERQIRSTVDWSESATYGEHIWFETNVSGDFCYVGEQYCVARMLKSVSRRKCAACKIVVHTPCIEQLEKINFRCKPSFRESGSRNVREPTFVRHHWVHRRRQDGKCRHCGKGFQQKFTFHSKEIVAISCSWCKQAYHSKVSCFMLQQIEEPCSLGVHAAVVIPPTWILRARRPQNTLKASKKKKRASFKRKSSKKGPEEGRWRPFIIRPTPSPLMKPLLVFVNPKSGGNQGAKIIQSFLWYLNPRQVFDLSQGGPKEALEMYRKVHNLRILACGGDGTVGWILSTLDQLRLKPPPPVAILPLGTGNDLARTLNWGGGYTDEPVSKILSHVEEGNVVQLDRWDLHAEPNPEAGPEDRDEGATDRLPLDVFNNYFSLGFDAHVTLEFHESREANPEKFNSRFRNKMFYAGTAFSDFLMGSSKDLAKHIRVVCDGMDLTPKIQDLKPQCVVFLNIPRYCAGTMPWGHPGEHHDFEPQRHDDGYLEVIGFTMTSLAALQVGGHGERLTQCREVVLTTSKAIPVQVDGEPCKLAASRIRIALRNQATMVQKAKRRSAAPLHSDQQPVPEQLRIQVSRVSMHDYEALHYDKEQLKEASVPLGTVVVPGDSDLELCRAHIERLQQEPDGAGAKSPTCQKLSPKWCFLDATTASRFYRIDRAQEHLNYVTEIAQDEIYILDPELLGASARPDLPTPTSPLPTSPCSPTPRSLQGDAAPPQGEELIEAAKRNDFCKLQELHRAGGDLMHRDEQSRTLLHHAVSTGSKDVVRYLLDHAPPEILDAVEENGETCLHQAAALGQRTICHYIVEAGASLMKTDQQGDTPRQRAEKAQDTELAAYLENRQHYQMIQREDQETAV
Sequence of RasGRP with an NH2-terminal HA epitope tag (HA-RasGRP) (O95267 whole entry): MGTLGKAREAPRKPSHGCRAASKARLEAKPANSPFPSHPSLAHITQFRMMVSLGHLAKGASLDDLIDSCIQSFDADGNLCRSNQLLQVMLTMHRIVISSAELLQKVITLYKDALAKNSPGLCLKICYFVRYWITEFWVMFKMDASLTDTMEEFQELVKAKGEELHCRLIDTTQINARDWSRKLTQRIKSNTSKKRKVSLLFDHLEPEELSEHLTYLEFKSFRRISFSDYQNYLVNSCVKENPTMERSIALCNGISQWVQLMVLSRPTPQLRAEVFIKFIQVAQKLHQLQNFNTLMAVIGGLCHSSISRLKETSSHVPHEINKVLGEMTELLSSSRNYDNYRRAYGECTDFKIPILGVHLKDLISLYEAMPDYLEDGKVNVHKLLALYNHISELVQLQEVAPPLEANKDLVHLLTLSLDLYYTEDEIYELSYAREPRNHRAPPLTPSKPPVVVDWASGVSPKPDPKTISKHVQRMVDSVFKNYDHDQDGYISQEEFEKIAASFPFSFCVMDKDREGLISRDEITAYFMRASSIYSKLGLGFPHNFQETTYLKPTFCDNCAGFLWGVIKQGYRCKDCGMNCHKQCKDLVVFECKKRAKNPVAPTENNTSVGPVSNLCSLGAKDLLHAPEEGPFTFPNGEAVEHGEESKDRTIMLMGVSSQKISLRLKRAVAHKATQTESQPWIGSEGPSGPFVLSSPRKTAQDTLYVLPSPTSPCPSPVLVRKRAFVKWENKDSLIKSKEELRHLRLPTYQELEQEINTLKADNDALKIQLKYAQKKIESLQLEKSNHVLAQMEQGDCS

Row | percent coprecipitated | Substance
1 | > 20% | A15-H-Ras (from UniProt P01112 1-189) (natural protein)
2 | > 20% | RasGRP with an NH2-terminal HA epitope tag (HA-RasGRP) (from UniProt O95267 1-797) (natural protein)
